According to US20170356905 (published 2017):

Target: alpha-thrombin (Homo sapiens, UniProt P00734;P00734 P00734:328-363,P00734:364-622)
Assay: competition; collected complementary strand (SEQ 3) increased with thrombin 0-100 ppm; HEPES/NaCl/KCl/MgCl2/Tween 20 buffer, room temperature

## GGTTGGTGTGGTTGGTTTTT (ssDNA, 3'-biotin; five T added at 3' end (included in SEQ)) [thrombin aptamer TA-3bio]
  binding result: binds
